Values belong to the molecule of their own block, whether it stands above or below them.
Legend:
[1] = molecular target: T1, WsTR-I (Withania somnifera, UniProt U5PUZ1); experiment: spectrophotometric A340, NADPH oxidation; format: biochemical; details: forward reaction, MES-NaOH pH 6.7, 30°C, kcat per monomer, unit inferred from kcat/Km
T1 construct: His6-tagged (pET28a NdeI/BamHI), E. coli BL21 (DE3); Ni-NTA and gel filtration; homodimer about 60 kDa
Source text: (§1) spectrophotometric A340, NADPH oxidation on WsTR-I

[2] = molecular target: T1, WsTR-I; experiment: spectrophotometric A340, NADP+ reduction; format: biochemical; details: reverse reaction; tropine; 30°C; printed kcat 0.54 (no unit) disagrees with printed kcat/Km
Source text: spectrophotometric A340, NADP+ reduction on WsTR-I

[3] = molecular target: Withania somnifera tropine forming tropinone reductase (WsTR-I), recombinant His6-WsTR-I (Withania somnifera); experiment: SEC; calibrated Sephadex G-150 column (70.0 cm x 0.6 cm), 0.1 M MES-NaOH pH 6.7 with 0.1 M NaCl, 5 ml/h; markers ovalbumin, BSA, alcohol dehydrogenase; elution followed by catalytic activity; native mass about 60 kDa compared with the 29.41 kDa subunit
[4] = system: CN1[C@@H]2CC[C@H]1CC(=O)C2; experiment: spectrophotometric A340, NADPH oxidation; format: biochemical, Withania somnifera; details: forward reaction, MES-NaOH pH 6.7, 30°C, kcat per monomer, unit inferred from kcat/Km
Source text: as §1

Molecule: CC1CCCC(=O)C1 (stereo not shown) [3-methyl-cyclohexanone]
Km ([1]; NADPH): 2110 µM

Molecule: NC(=O)C1=CN([C@@H]2O[C@H](COP(=O)(O)OP(=O)(O)OC[C@H]3O[C@@H](n4cnc5c(N)ncnc54)[C@H](OP(=O)(O)O)[C@@H]3O)[C@@H](O)[C@H]2O)C=CC1 [NADPH]
Km ([1]; tropinone): 0.43 µM

Molecule: WsTR-I (Withania somnifera)
Km [4]: 1270 µM | kcat [4]: 9.51 s⁻¹ | kcat/Km [4]: 7490 M⁻¹ s⁻¹

Results, then the molecule that gave them:

Km [2]: 96.2 µM
Molecule: NC(=O)c1ccc[n+]([C@@H]2O[C@H](COP(=O)(O)OP(=O)(O)OC[C@H]3O[C@@H](n4cnc5c(N)ncnc54)[C@H](OP(=O)(O)O)[C@@H]3O)[C@@H](O)[C@H]2O)c1 [NADP^+]

stoichiometry N [3]: 2
Molecule: Withania somnifera tropine forming tropinone reductase (WsTR-I), recombinant His6-WsTR-I (enzyme)

Reference: PMC3783447, “Tropine Forming Tropinone Reductase Gene from Withania somnifera (Ashwagandha): Biochemical Characteristics of the Recombinant Enzyme and Novel Physiological Overtones of Tissue-Wide Gene Expression Patterns” (PLoS ONE, 2013)
